Assay results taken from article PMC1939876.

Columns and labels:
Test in all cases: EMSA
[1] = system: Zif268 3F peptide; settings: calibration reference; value from ref 51; Buffer, salt, pH and temperature not given (methods cited); phage ELISA with 0.125-32 nM DNA; EMSA with 5-fold dilution series of TNT-expressed protein; cited from earlier work
[2] = system: VP16-6ZfFLO11/F2-F1 (engineered); settings: Buffer, salt, pH and temperature not given (methods cited); phage ELISA with 0.125-32 nM DNA; EMSA with 5-fold dilution series of TNT-expressed protein
[3] = system: VP64-6ZfFLO11/F2-F1 (engineered); settings: Buffer, salt, pH and temperature not given (methods cited); phage ELISA with 0.125-32 nM DNA; EMSA with 5-fold dilution series of TNT-expressed protein

| Substance | Kd [1] | binding signal (fold stronger than 3F rTFs) [2] | binding signal (fold stronger than 3F rTFs) [3] |
| --- | --- | --- | --- |
| Zif268 cognate 9-bp site | 2 nM | – | – |
| TFLO11/F2-F1 (also called F1-F2) 31-bp oligo | – | 10 | 10 |
